Eight molecules from publication PMC3592463 can be followed below.

Data set [1] deals with T1, Hfq (E. coli, UniProt P0A6X3 1-102). The data set can be described thus: EMSA.
The target of data set [2] is T1, Hfq. The data set can be described thus: MST.
Data set [3] deals with T1, Hfq. The data set can be described thus: MST. This is another data set of the same source.
Data set [4] addresses T2, Tat(44-61) (UniProt P04608 44-61).
T2 chain: GISYGRKKRRQRRRAHQN
The data set can be described thus: MST.

Data set [5] concerns the target T2, Tat(44-61). Nature of the data set: MST.

Where two headings read alike, the source gives them in different places.

T1 sequence (P0A6X3 whole entry): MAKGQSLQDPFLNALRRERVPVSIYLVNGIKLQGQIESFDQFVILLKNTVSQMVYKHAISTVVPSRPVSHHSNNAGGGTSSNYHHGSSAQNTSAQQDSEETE

As to AAUUUAAUGUUUUAUUUAUUA (ssRNA) [J1], the binding result with Hfq [1] is recorded as “binds”. For the molecule AAUUCAAUGUUUUAGUUACUG (ssRNA) [J3], the binding result with Hfq [2] is on record as “binds”. For AAUUUAAUGUUUUAGUUACUA (ssRNA) [J2], the binding result with Hfq [3] was “binds”. Take AACUCAAUGUCUUAGUUACUG (ssRNA) [J4]: the binding result in the data set with Hfq [2] was “binds”.

B1: ds21R (dsRNA)
RNA 1: AUGUGGAAAAUCUCUAGCAGU
RNA 2: ACUGCUAGAGAUUUUCCACAU
B1: the affinity with Tat(44-61) [4], expressed as Kd, was 7.4 ± 0.9 µM.

Turning to AUGUGGAAAAUCUCUAGCAGU (ssRNA) [21R+], the dissociation constant (Kd) with Tat(44-61) [5] worked out at 6.3 ± 0.5 µM. Consider GACUCAGUGUCAGAGUCACUG (ssRNA) [J6], for which the binding result with Hfq [2] is on record as “no binding”.

B2: JM6 (dsRNA)
RNA 1: GACUCAGUGUCAGAGUCACUG
RNA 2: CAGUGACUCUGACACUGAGUC
Consider B2, for which the binding result with Hfq [2] was “no binding”.

The term Kd denotes a measure of binding affinity in units of concentration. Read a high Kd as lower affinity.
